Laboratory results taken from the RNAGym collection of RNA variant scans (doi:10.1073/pnas.2313332121).
Variants at the floor of the assay were thinned out.

B1: TPR 5TU (parent)
chain: GGAUCUUCUCGAUCUAACAAAAAAGACAAAUCUGCCACAAAGCUUGAGAGCAUCUUCGGAUGCAGAGGCGGCAGCCUUCGGUGGCGCGAUAGCGCCAACGUUCUCAACUAUGACACGCAAAACGCGUGCUCCGUUGAAUGGAGUUUAUCAUG

Variants of: B1
Assay: polymerase ribozyme fitness, log enrichment relative to wild type (log ratio); higher = more active; in vitro selection for triplet polymerase activity
Summary of the method: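 Input and output libraries were sequenced on Illumina after a single in vitro selection round, run in triplicate on PCR-built, transcribed mutant libraries of each subunit of a heterodimeric triplet polymerase ribozyme. Selection annealed libraries to a biotinylated primer, the partner subunit and triplets, incubated them frozen at −7 °C, then gel-excised extended constructs for streptavidin-bead capture and RT-PCR. Genotypes with ≥10 input reads and ≥1 read per output were kept. Fitness is the logarithm, taken in base 2, of genotype enrichment divided by wild-type enrichment, using inverse-variance-weighted replicate averages.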

Variant	polymerase ribozyme fitness (log ratio)
A52C G92U G152U	-3.32
U13C C14G C43G A91G A106U U109G A138G	-4.06
U56G C108A	≤ -4.2
A89U A121U	-0.72
C76A U135C	-1.96
U7A C93G A113U A138C	≤ -4.2
A40G A64C G70A C114U	≤ -4.2
A40U G92C U102C C103G A113G C132G U146C G152U	≤ -4.2
C51A G140C	-4.19
A19U C69U G92C G126C	-1.04
C10U A24U U33G A41G U56A C85U A91C	≤ -4.2
A16C C18U C38U A39C A49U G67A U134G	≤ -4.2
G25U A49G G59U C99A	≤ -4.2
U9G C38U C54U C57A A60G	≤ -4.2
G58U C129G	-2.47
G48A A113G A147G G152C	≤ -4.2
C51U C116U A121C G152U	-3.78
U6G C63U G83U A98U A122U	-0.875
A26U U31A U44G C75G U102G A120C	≤ -4.2
U55G A60U G83C A137U G141U	≤ -4.2
U6A A12G A17G A40G C96A A137G	-3.74

Variant	polymerase ribozyme fitness (log ratio)
U15G C51U A98U A115G G136A	-2.29
C43U A66G C105A	≤ -4.2
A137U G141A	-3.24
A26U C35U U55A C96G G124A	≤ -4.2
C27U A40U G58C G59U G92U	-2.23
A23G A39U A47C U53G G86C A106G	≤ -4.2
U53A C95U	-0.368
C57A G58A C79U G88U	≤ -4.2
A3U U56C C87U A89G U101G	-2.52
A21U A24C U33C G94A A107C	≤ -4.2
A3U C18U A20C A30C A41C C69U G94A C103G	≤ -4.2
G48A C57U G83C U101C	-2.63
A20U A47U A89U C96U G128U	≤ -4.2
C27U A39C G83A	≤ -4.2
G58A A98G G100A U104G A113G A119U A120U A122U U145C	≤ -4.2
U13A A20G A28G G48A U146C	≤ -4.2
A22U U56A G92A	-3.22
A3G C14G U61G G71A G86C A91C C105G C114G G143A U145A	≤ -4.2
U139A U144A	-4.15
A29U C36U G62A U109G	≤ -4.2
U109G C118G U144A	-3.88

Variant	polymerase ribozyme fitness (log ratio)
G84A A122G G140A G141A	≤ -4.2
A52U A150G	-1.24
C27U G58C C123U	-1.57
C32G G94A	-3.8
A37U U61A A89C C96A A98C U104A	≤ -4.2
C14G U53A C54A U61G G62U U146C	≤ -4.2
A20C A22U G58A U77C C96G	≤ -4.2
C63G G81C U82A	-0.391
A23U A40G C87A G141U	≤ -4.2
C8A U44A C51A A66G C85U U130G	≤ -4.2
C63G G68C	≤ -4.2
G80A A150G	-1.8
A28U A64G A66U A73U G81U C95U C114U C149A	≤ -4.2
C51G C75U C79A G80C C87A A98U C103G U145G	≤ -4.2
C72U A91U C96G	≤ -4.2
A113U G124C	-3.17
C43U U56A C72A C85A	≤ -4.2
C85G G124A G133A	≤ -4.2
U15A A47C G48C G58C C125U G140A	≤ -4.2
C75U C85U G86C	-1.49
A12C A47U U55A	-1.41

Variant	polymerase ribozyme fitness (log ratio)
A47U G141A	-1.46
A22C A28U C105U C123U	≤ -4.2
U53A C79U A89G U134G	≤ -4.2
C87U A89G	-3.41
C18U A20U C103A G124A	-3.82
A21G G143A	-0.569
A16C C32U C72G C75A G86C C87G C99U A107U A120U G124U	≤ -4.2
G42A G50C U55A G84A G143U	≤ -4.2
A24U G86A	-1.43
U101C C132A	-2.05
C14U U55A U56A C76A	-2.4
C87A U144G	-3.92
A29U G70U	≤ -4.2
A91G G100U A113U A120G C125A U139G	≤ -4.2
A23C G42U A137U	≤ -4.2
A21C C57G G81A A115C	-1.84
G88U C99A	-4.1
U56A G65A G94C A150U	-1.57
G50C G94A C116U	-3.3
A142G U146C	-3.25
